Data set [1] has as its target T1, alpha-synuclein monomer (human, UniProt P37840 1-140). Kind of data set: DNase I footprinting.
In another data set the target is gamma-synuclein (UniProt O76070 1-127). Kind of data set: MST.
Another data set addresses beta-synuclein (UniProt Q16143 1-134). Kind of data set: MST.
Data set [2] addresses T1, alpha-synuclein monomer. Kind of data set: EIS.

beta-synuclein, sequence (Q16143 whole entry): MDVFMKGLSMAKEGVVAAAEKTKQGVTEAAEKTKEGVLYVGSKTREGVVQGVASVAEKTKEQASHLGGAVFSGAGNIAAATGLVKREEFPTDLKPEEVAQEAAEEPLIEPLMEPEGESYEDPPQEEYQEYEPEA
gamma-synuclein, sequence (O76070 whole entry): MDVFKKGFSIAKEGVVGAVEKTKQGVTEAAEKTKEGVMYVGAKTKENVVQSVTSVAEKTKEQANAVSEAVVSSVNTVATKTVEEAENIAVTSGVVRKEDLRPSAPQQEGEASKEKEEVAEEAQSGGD

B1: a-syn-1 (5'-fluorescein) (ssDNA)
DNA: ATAGTCCCATCATTCATTGTAAGGAAACGCTACGGGGTGGGTACGGCAAGATATTAGCAAGTGTCA
Regarding B1, the dissociation constant Kd in the data set with alpha-synuclein monomer [1] came out at 28 ± 14 nM.

B2: a-syn-1 (5'-Cy5) (ssDNA)
DNA: ATAGTCCCATCATTCATTGTAAGGAAACGCTACGGGGTGGGTACGGCAAGATATTAGCAAGTGTCA
Turning to B2, the binding result with gamma-synuclein and with beta-synuclein was “no binding” each time.

B3: a-syn-1 (thiol, on gold electrode) (ssDNA)
DNA: ATAGTCCCATCATTCATTGTAAGGAAACGCTACGGGGTGGGTACGGCAAGATATTAGCAAGTGTCA
modifications: thiol (end not stated), immobilized on gold
With B3, binding in the data set with alpha-synuclein monomer [2] was characterised by a dissociation constant (Kd) of 70 ± 3 nM.

The values above are taken from publication PMC11456556.
